Measured values as given in article PMC7778609.

Columns and labels:
[1] = target: human FcγRIIIa^F158 extracellular domain with AviTag and 6×his tag (human) (UniProt P08637); test: SPR; Biacore T200, HBS-EP+ buffer, 20 °C; 500 nM his-tagged FcγR extracellular domains captured by anti-his antibody on a CM5 chip; twofold serially diluted antibody variants injected (120 s association, 130 s dissociation, 30 μL/min); 1:1 binding kinetics model or steady state affinity model
[2] = target: human FcγRIIIa^V158 extracellular domain with AviTag and 6×his tag (human); test: as above
[3] = target: human FcγRIIa^H131 extracellular domain with AviTag and 6×his tag (human) (UniProt P12318); test: as above
Chain of human FcγRIIa^H131 extracellular domain with AviTag and 6×his tag (human) (P12318 34-217): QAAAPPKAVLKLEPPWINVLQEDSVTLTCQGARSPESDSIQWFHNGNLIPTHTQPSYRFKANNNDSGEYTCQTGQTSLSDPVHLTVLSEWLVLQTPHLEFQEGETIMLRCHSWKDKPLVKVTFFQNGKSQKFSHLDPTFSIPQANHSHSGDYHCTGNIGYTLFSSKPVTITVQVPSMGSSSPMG

[4] = target: human FcγRIIa^R131 extracellular domain with AviTag and 6×his tag (human); test: as above
[5] = target: human FcγRIIb extracellular domain with AviTag and 6×his tag (human) (UniProt P31994); test: as above
Chain of human FcγRIIb extracellular domain with AviTag and 6×his tag (human) (P31994 43-217): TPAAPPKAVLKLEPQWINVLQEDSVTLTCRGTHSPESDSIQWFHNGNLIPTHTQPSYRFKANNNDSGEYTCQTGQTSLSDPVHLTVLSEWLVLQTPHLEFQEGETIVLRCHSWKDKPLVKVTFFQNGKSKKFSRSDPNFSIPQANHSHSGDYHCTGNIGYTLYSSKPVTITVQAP

[6] = target: human FcRn, his-tagged (human) (UniProt P55899); test: SPR; as a1, his-tagged FcRn captured by anti-his antibody, antibody variants injected; pH 6
Chain of human FcRn, his-tagged (human) (P55899 24-297): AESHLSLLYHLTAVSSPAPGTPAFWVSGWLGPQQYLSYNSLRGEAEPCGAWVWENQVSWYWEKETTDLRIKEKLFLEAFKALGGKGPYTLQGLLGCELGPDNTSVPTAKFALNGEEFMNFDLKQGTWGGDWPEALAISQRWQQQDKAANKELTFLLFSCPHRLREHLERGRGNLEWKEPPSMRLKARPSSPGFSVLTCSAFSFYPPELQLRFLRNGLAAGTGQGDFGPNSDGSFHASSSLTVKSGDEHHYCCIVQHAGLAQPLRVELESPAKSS

[7] = target: human FcγRI extracellular domain, his-tagged (human) (UniProt P12314); test: SPR; Biacore T200, HBS-EP+ buffer, 20 °C; 500 nM his-tagged FcγR extracellular domains captured by anti-his antibody on a CM5 chip; twofold serially diluted antibody variants injected (120 s association, 130 s dissociation, 30 μL/min); 1:1 binding kinetics model or steady state affinity model
Chain of human FcγRI extracellular domain, his-tagged (human) (P12314 16-292): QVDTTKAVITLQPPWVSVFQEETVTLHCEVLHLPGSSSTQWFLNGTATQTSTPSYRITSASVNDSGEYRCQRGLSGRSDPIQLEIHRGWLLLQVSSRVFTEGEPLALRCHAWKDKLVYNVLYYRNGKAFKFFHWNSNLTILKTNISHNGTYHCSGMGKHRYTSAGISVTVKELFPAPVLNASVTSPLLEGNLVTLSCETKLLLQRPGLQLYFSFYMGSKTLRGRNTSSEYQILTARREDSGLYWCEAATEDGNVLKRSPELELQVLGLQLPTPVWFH

Chain of human FcγRIIIa^F158 extracellular domain with AviTag and 6×his tag (human) (P08637 17-208): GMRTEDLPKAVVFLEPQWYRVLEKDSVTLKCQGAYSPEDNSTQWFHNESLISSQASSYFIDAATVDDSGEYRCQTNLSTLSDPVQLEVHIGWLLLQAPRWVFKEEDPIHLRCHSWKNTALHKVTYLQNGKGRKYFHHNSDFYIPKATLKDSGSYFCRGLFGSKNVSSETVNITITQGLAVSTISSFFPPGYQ

Substance | Kd [1] | Kd [2] | Kd [3] | Kd [4] | Kd [5] | Kd [6] | Kd [7]
defucosylated trastuzumab with Fc variant H268E/K326M/I332E (antibody) | 3.55 nM | 1.71 nM | 1040 nM | 420 nM | 1030 nM |  | 
defucosylated trastuzumab with Fc variant H268E/K326S/I332E (antibody) | 2.62 nM | 1.36 nM | 669 nM | 369 nM | 1460 nM |  | 
rituximab with Fc variant H268E/A330Y/I332D (antibody) | 94 nM | 60.6 nM | 526 nM | 680 nM | 1470 nM | 21.9 nM | 5.04 nM
rituximab with Fc variant H268E/K326I/I332E (antibody) | 311 nM | 143 nM | 1950 nM | 1210 nM | 1690 nM | 25.7 nM | 6.11 nM
rituximab with wild-type Fc (antibody) | 944 nM | 403 nM | 1090 nM | 1250 nM | 2410 nM | 21 nM | 8.67 nM

The remaining lines, values ahead:

Kd [1] | Kd [2] | Kd [3] | Kd [4] | Kd [5] | Kd [6] | Kd [7] | Substance
46.5 nM | 12.3 nM | 2090 nM | 1460 nM | 1780 nM |  |  | defucosylated trastuzumab with wild-type Fc (antibody)
174 nM | 38.5 nM | 1000 nM | 1500 nM | 1240 nM |  |  | fucosylated trastuzumab with wild-type Fc (antibody)
156 nM | 61.1 nM | 627 nM | 575 nM | 906 nM | 21.5 nM | 5.64 nM | rituximab with Fc variant H268E/A330T/I332E (antibody)
 | 69.1 nM | 882 nM | 738 nM | 1050 nM | 26 nM | 5.15 nM | rituximab with Fc variant H268E/K326M/I332E (antibody)
151 nM | 74.7 nM | 814 nM | 803 nM | 1130 nM | 25 nM | 5.18 nM | rituximab with Fc variant H268E/K326S/I332E (antibody)
